In publication PMC5118791, “Beyond Antibodies: Development of a Novel Protein Scaffold Based on Human Chaperonin 10” (Scientific Reports, 2016):
Each block holds one binder with its values, some of them ahead of it.

Legend:
[1] = molecular target: the molecule itself; assay: SEC; analytical SE-HPLC, TSK G3000SWXL, 0.1 M phosphate pH 7.8, 0.2 M NaCl, 1 mg/mL, 0.8 mL/min, 25 °C; calibrated with BioRad standards
[2] = molecular target: T1, recombinant Factor VIIa (rFVIIa); assay: BLI; Octet Red, Ni-NTA biosensors, 37 °C, 1000 rpm; association 180 sec, dissociation 10 min; 1:1 model, global fit; the legend of Figure 4b says rFVIIa was immobilised; conditions: both partners purified
T1 construct: rFVIIa (NovoSeven RT); no His tag on rFVIIa is stated anywhere; also called NovoSeven RT; source: bought: NovoSeven RT (named for the ELISA)

[3] = molecular target: T1, recombinant Factor VIIa (rFVIIa); assay: cell-based or functional assay

T1 sequence (P08709 whole entry): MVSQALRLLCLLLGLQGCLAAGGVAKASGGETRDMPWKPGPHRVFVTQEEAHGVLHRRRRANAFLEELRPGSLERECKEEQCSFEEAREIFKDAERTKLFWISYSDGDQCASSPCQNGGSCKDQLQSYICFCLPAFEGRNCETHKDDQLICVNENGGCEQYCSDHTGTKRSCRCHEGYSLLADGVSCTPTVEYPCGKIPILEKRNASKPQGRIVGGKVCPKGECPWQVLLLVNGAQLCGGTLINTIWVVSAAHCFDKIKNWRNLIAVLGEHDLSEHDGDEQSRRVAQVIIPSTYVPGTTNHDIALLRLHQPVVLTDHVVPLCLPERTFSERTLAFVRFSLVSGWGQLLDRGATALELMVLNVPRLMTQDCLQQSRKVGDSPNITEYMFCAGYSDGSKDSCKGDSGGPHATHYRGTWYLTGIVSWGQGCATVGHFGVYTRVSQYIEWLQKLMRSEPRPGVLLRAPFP

- Kd [2]: 5.5 nM
B1: CE76-E5 (hCpn10 scaffold displaying the E-76 peptide with E5 linkers) (designed binder)
chain: AGQAFRKFLPLFDRVLVERSAAETVALCDDPRVDRWYCQFVEGEKSQGKVLQATVVAVGSGSKGKGGEIQPVSVKVGDKVLLPEYGGTKVVLDDKDYFLFRDGDILGKYVD
- stoichiometry N [1]: 7

- inhibition of FX activation by TF-FVIIa (chromogenic substrate S-2765), IC50 [3]: 1.5 nM
- inhibition of amidolytic activity of FVIIa (Chromozym t-PA) in the presence of TF, IC50 [3]: 6.8 nM
- inhibition of amidolytic activity of FVIIa (Chromozym t-PA) without TF, IC50 [3]: 8.4 nM
- prothrombin time (PT) in citrated human plasma, 0.001-100 μM, fold prolongation over normal clotting time [3]: 7 fold
- Kd [2]: 3 nM
B2: CE76-P1 (hCpn10 scaffold displaying the E-76 peptide with P1 linkers) (designed binder)
chain: AGQAFRKFLPLFDRVLVERSAAAPALCDDPRVDRWYCQFVEGAAPGKVLQATVVAVGSGSKGKGGEIQPVSVKVGDKVLLPEYGGTKVVLDDKDYFLFRDGDILGKYVD
- stoichiometry N [1]: 7
